Measured values as given in patent US20140105889A1 (published 2014).

What was measured:
Assay in all cases: SPR (Biacore), antibody captured on chip, FcγR as analyte, HBS-EP+, 25°C;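 note: FcγR binding response divided by the amount of captured antibody, then expressed relative to the reference antibody ×100, with antibodies captured via immobilized Protein A, A/G, L or antigen peptides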
human FcγRIIa(R) = target: T1, human FcγRIIa(R) (human, UniProt P12318 36-217)
T1 construct: Analyte in solution on Biacore; also called FcγRIIa type R; FcgRIIaR
T1 chain: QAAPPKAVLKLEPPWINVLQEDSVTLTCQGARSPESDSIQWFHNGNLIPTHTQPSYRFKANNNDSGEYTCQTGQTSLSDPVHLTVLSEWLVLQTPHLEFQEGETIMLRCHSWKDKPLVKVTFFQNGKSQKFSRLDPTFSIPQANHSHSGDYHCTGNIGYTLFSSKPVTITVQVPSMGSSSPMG
Description: (§1) Interaction between each modified antibody and Fcγ receptor prepared in the manner described above was analyzed using the Biacore T100 (GE Healthcare), Biacore T200 (GE Healthcare), Biacore A100 or Biacore 4000. HBS-EP+ (GE Healthcare) was used for the running buffer, and measurements were carried out at 25° C. The chips used were chips in which antigen peptides, Protein A (Thermo Scientific), Protein A/G (Thermo Scientific) or Protein L (ACTIGEN or BioVision) were immobilized on the Series S Sensor Chip CM5 (GE Healthcare) or Series S Sensor Chip CM4 (GE Healthcare) by amine coupling, or chips in which preliminarily biotinylated antigen peptides were allowed to interact and then immobilized on the Series S Sensor Chip SA (certified) (GE Healthcare). The target antibodies were captured on these sensor chips, Fcγ receptor diluted with the running buffer was allowed to interact, followed by measurement of the amount of bound antibody. The amounts bound were compared between antibodies. However, since the amount of Fcγ receptor bound depends on the amount of captured antibody, the values used for comparison were first corrected by dividing the amount of Fcγ receptor bound by the captured amount of each antibody. Through reaction with 10 mM glycine-HCl at pH 1.5, the sensor chips were regenerated by washing off antibody captured on the sensor chips and used repeatedly.
(§2) Binding strength was evaluated according to the following method based on the results of analyzing the interaction with each FcγR. […] That value was then further multiplied by 100, and the resulting value was used as an indicator of relative binding activity to each FcγR.

human FcγRIIa(H) = target: T2, human FcγRIIa(H) (human, UniProt P12318 36-217)
T2 construct: Analyte in solution on Biacore; also called FcγRIIa type H; FcgRIIaH
T2 sequence: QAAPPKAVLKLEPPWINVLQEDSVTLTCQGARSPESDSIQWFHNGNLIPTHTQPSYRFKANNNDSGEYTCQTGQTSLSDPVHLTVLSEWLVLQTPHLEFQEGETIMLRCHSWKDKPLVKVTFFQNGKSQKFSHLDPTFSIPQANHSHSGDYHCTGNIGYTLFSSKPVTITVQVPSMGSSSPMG
Description: as §1, §2

human FcγRIa = target: T3, human FcγRIa (human, UniProt P12314 16-292, limits assumed)
T3 construct: Analyte in solution on Biacore; also called FcgRIa; hFcgRIa
Description: as §1, §2

human FcγRIIb = target: T4, human FcγRIIb (human, UniProt P31994 43-217, limits assumed)
T4 construct: Analyte in solution on Biacore; also called FcgRIIb; hFcgRIIb
T4 sequence: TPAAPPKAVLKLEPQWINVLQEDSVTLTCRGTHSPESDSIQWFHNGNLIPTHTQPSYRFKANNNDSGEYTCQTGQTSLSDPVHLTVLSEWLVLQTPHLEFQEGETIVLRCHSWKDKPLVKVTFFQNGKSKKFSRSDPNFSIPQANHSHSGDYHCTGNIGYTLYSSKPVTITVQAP
Description: as §1, §2

human FcγRIIIa(F) = target: T5, human FcγRIIIa(F) (human, UniProt P08637 17-208, limits assumed)
T5 construct: also called FcgRIIIaF; hFcgRIIIa(F)
T5 sequence (P08637 other isoform, or with tags, fused parts or gaps limits assumed): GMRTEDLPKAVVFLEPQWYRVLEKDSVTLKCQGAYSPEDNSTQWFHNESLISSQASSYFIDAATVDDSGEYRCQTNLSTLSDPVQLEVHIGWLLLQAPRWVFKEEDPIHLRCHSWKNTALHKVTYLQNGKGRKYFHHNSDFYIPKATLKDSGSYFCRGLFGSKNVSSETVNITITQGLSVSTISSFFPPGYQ
Description: as §1, §2

T3 sequence (P12314 16-292 limits assumed): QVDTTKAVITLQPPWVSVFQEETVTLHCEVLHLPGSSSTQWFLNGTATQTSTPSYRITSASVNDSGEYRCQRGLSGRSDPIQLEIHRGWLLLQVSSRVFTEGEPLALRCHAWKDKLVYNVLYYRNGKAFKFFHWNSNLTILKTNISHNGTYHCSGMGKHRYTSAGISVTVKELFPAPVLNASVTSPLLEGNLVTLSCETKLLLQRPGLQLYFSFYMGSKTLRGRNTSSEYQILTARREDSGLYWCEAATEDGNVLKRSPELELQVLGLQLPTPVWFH

B1: GpH7-B3 variant A330S / GpL16-k0 (antibody, human IgG1)
heavy: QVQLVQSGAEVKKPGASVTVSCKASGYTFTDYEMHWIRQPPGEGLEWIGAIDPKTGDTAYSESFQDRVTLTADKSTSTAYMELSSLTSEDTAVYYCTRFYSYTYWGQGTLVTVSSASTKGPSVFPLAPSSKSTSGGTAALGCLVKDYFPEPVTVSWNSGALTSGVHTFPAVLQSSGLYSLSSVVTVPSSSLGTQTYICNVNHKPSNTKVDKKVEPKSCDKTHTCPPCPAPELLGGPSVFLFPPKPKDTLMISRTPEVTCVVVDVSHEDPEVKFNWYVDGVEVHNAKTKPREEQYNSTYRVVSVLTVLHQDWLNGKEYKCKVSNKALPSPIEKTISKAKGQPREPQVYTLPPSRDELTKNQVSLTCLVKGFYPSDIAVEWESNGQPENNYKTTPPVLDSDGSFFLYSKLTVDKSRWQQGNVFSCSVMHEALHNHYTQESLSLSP
light: DIVMTQSPLSLPVTPGEPASISCQASESLVHSNRNTYLHWYLQKPGQSPQLLIYKVSNRFSGVPDRFSGSGSGTDFTLKISRVEAEDVGVYYCSQNTHVPPTFGQGTKVEIE
notes: Anti-glypican-3 IgG1; constant region B3 = G1d with K439E
relative binding activity (% of GpH7-B3/GpL16-k0) (human FcγRIIa(R)): 0% | relative binding activity (% of GpH7-B3/GpL16-k0) (human FcγRIIa(H)): 0% | relative binding activity (% of GpH7-B3/GpL16-k0) (human FcγRIa): 58% | relative binding activity (% of GpH7-B3/GpL16-k0) (human FcγRIIb): -3% | relative binding activity (% of GpH7-B3/GpL16-k0) (human FcγRIIIa(F)): 0%

B2: GpH7-B3 variant I332P / GpL16-k0 (antibody, human IgG1)
heavy: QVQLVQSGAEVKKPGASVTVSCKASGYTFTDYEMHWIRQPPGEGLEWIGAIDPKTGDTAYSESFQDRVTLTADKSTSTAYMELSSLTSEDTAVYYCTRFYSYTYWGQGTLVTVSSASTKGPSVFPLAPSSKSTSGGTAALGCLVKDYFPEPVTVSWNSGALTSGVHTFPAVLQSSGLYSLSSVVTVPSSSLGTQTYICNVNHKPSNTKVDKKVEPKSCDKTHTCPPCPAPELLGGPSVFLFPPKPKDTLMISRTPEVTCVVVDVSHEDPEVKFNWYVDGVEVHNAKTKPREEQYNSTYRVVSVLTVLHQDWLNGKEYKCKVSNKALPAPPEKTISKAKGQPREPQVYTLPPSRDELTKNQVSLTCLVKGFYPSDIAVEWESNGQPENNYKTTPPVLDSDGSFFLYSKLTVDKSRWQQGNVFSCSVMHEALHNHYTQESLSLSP
light: DIVMTQSPLSLPVTPGEPASISCQASESLVHSNRNTYLHWYLQKPGQSPQLLIYKVSNRFSGVPDRFSGSGSGTDFTLKISRVEAEDVGVYYCSQNTHVPPTFGQGTKVEIE
notes: as for B1
relative binding activity (% of GpH7-B3/GpL16-k0) (human FcγRIIa(R)): 34% | relative binding activity (% of GpH7-B3/GpL16-k0) (human FcγRIIa(H)): 26% | relative binding activity (% of GpH7-B3/GpL16-k0) (human FcγRIa): 100% | relative binding activity (% of GpH7-B3/GpL16-k0) (human FcγRIIb): 41% | relative binding activity (% of GpH7-B3/GpL16-k0) (human FcγRIIIa(F)): 14%

B3: GpH7-B3 variant I332R / GpL16-k0 (antibody, human IgG1)
heavy: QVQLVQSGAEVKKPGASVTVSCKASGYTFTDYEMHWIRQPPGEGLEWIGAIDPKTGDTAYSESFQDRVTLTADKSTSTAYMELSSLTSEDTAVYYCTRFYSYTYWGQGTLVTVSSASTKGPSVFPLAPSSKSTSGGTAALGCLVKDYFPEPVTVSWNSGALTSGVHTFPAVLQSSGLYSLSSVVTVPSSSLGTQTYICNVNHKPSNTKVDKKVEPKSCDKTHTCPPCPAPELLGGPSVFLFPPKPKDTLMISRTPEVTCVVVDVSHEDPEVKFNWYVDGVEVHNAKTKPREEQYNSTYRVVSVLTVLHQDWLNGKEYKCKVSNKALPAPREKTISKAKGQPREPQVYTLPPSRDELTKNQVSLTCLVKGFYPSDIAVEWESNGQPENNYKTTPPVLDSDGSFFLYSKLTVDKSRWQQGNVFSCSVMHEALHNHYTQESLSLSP
light: DIVMTQSPLSLPVTPGEPASISCQASESLVHSNRNTYLHWYLQKPGQSPQLLIYKVSNRFSGVPDRFSGSGSGTDFTLKISRVEAEDVGVYYCSQNTHVPPTFGQGTKVEIE
notes: as for B1
relative binding activity (% of GpH7-B3/GpL16-k0) (human FcγRIIa(R)): 28% | relative binding activity (% of GpH7-B3/GpL16-k0) (human FcγRIIa(H)): 70% | relative binding activity (% of GpH7-B3/GpL16-k0) (human FcγRIa): 95% | relative binding activity (% of GpH7-B3/GpL16-k0) (human FcγRIIb): 23% | relative binding activity (% of GpH7-B3/GpL16-k0) (human FcγRIIIa(F)): 61%

B4: GpH7-B3 variant P329D / GpL16-k0 (antibody, human IgG1)
heavy: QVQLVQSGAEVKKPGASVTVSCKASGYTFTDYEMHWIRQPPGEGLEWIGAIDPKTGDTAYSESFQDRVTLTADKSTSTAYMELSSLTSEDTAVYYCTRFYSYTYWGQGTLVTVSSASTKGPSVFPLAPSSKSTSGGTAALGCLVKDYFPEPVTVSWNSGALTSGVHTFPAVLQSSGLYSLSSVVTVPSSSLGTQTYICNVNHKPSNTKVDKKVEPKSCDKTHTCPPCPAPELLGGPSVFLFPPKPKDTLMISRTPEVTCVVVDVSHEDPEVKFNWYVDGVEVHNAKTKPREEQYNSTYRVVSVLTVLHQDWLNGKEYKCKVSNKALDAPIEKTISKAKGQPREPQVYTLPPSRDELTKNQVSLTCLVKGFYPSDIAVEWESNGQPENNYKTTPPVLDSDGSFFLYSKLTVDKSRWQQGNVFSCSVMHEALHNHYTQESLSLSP
light: DIVMTQSPLSLPVTPGEPASISCQASESLVHSNRNTYLHWYLQKPGQSPQLLIYKVSNRFSGVPDRFSGSGSGTDFTLKISRVEAEDVGVYYCSQNTHVPPTFGQGTKVEIE
notes: as for B1
relative binding activity (% of GpH7-B3/GpL16-k0) (human FcγRIIa(R)): -1% | relative binding activity (% of GpH7-B3/GpL16-k0) (human FcγRIIa(H)): -1% | relative binding activity (% of GpH7-B3/GpL16-k0) (human FcγRIa): 23% | relative binding activity (% of GpH7-B3/GpL16-k0) (human FcγRIIb): -2% | relative binding activity (% of GpH7-B3/GpL16-k0) (human FcγRIIIa(F)): -1%

B5: GpH7-B3 variant P329E / GpL16-k0 (antibody, human IgG1)
heavy: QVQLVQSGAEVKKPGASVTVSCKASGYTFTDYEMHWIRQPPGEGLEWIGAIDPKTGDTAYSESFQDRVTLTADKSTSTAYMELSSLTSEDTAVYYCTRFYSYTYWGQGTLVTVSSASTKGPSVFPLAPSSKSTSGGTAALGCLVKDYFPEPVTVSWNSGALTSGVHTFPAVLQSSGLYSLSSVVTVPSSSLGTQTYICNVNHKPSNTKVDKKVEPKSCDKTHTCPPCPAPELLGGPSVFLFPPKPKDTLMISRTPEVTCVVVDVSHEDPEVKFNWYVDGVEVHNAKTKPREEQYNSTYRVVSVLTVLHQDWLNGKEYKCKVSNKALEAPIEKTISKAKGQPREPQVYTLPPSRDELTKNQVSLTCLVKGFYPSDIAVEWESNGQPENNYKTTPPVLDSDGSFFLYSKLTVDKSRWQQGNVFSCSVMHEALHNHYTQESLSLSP
light: DIVMTQSPLSLPVTPGEPASISCQASESLVHSNRNTYLHWYLQKPGQSPQLLIYKVSNRFSGVPDRFSGSGSGTDFTLKISRVEAEDVGVYYCSQNTHVPPTFGQGTKVEIE
notes: as for B1
relative binding activity (% of GpH7-B3/GpL16-k0) (human FcγRIIa(R)): -1% | relative binding activity (% of GpH7-B3/GpL16-k0) (human FcγRIIa(H)): 0% | relative binding activity (% of GpH7-B3/GpL16-k0) (human FcγRIa): 33% | relative binding activity (% of GpH7-B3/GpL16-k0) (human FcγRIIb): -2% | relative binding activity (% of GpH7-B3/GpL16-k0) (human FcγRIIIa(F)): -1%

B6: GpH7-B3 variant P329G / GpL16-k0 (antibody, human IgG1)
heavy: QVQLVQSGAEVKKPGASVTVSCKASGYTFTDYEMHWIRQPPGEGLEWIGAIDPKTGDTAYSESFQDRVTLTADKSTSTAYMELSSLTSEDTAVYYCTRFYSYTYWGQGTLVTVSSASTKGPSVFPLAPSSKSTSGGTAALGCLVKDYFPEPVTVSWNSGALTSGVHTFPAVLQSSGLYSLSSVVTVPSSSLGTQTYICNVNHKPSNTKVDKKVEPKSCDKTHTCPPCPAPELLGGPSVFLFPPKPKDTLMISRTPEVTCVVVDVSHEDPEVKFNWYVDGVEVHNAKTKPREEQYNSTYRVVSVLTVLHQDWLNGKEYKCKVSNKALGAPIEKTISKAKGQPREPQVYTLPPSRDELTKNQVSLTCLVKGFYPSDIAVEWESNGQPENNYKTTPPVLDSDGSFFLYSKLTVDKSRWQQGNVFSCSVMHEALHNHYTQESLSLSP
light: DIVMTQSPLSLPVTPGEPASISCQASESLVHSNRNTYLHWYLQKPGQSPQLLIYKVSNRFSGVPDRFSGSGSGTDFTLKISRVEAEDVGVYYCSQNTHVPPTFGQGTKVEIE
notes: as for B1
relative binding activity (% of GpH7-B3/GpL16-k0) (human FcγRIIa(R)): 1% | relative binding activity (% of GpH7-B3/GpL16-k0) (human FcγRIIa(H)): 1% | relative binding activity (% of GpH7-B3/GpL16-k0) (human FcγRIa): 92% | relative binding activity (% of GpH7-B3/GpL16-k0) (human FcγRIIb): 0% | relative binding activity (% of GpH7-B3/GpL16-k0) (human FcγRIIIa(F)): 4%

B7: GpH7-B3 variant P329W / GpL16-k0 (antibody, human IgG1)
heavy: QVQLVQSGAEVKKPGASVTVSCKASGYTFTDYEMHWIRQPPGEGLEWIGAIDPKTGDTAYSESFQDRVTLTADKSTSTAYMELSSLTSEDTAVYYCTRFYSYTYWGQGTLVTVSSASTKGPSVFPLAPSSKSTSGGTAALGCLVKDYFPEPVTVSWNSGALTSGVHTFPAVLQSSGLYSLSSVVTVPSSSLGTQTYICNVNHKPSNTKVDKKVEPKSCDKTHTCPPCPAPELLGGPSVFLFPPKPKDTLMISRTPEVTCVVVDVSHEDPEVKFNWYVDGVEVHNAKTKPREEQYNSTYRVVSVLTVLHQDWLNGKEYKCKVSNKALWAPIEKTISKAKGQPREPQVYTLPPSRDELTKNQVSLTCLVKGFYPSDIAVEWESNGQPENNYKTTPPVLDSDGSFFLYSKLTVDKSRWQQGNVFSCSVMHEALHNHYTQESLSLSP
light: DIVMTQSPLSLPVTPGEPASISCQASESLVHSNRNTYLHWYLQKPGQSPQLLIYKVSNRFSGVPDRFSGSGSGTDFTLKISRVEAEDVGVYYCSQNTHVPPTFGQGTKVEIE
notes: as for B1
relative binding activity (% of GpH7-B3/GpL16-k0) (human FcγRIIa(R)): 1% | relative binding activity (% of GpH7-B3/GpL16-k0) (human FcγRIIa(H)): 0% | relative binding activity (% of GpH7-B3/GpL16-k0) (human FcγRIa): 94% | relative binding activity (% of GpH7-B3/GpL16-k0) (human FcγRIIb): 0% | relative binding activity (% of GpH7-B3/GpL16-k0) (human FcγRIIIa(F)): 0%

B8: GpH7-B3 variant P329Y / GpL16-k0 (antibody, human IgG1)
heavy: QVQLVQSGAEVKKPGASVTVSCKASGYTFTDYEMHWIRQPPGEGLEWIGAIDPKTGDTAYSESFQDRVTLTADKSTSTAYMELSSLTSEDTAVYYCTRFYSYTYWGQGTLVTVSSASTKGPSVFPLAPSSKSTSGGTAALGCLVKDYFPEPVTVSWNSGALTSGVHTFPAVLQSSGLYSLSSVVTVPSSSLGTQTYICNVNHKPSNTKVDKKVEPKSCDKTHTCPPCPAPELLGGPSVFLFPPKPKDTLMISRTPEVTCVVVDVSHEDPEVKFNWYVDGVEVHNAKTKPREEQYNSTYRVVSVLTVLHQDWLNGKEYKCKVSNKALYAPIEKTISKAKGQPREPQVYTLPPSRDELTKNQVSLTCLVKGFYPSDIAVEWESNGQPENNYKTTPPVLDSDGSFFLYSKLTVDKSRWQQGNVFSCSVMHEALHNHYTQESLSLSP
light: DIVMTQSPLSLPVTPGEPASISCQASESLVHSNRNTYLHWYLQKPGQSPQLLIYKVSNRFSGVPDRFSGSGSGTDFTLKISRVEAEDVGVYYCSQNTHVPPTFGQGTKVEIE
notes: as for B1
relative binding activity (% of GpH7-B3/GpL16-k0) (human FcγRIIa(R)): -1% | relative binding activity (% of GpH7-B3/GpL16-k0) (human FcγRIIa(H)): 0% | relative binding activity (% of GpH7-B3/GpL16-k0) (human FcγRIa): 76% | relative binding activity (% of GpH7-B3/GpL16-k0) (human FcγRIIb): -3% | relative binding activity (% of GpH7-B3/GpL16-k0) (human FcγRIIIa(F)): 0%
